Measured values published in PMC11584402.

Key:
[1] = target: MCL1-mCherry (human), Q07820; test: probe binding assay (PBA; single-molecule pull-down with TIRF counting); mCherry-labelled anti-apoptotic protein from HEK293T crude extract immobilised on the PEG surface (anti-RFP antibody); eGFP-labelled probe in crude HEK293T extract added at 0-20 nM eGFP, 10 min; fractional occupancy of surface baits fitted to [probe]/(Kd+[probe]); conditions: remark: other sources report otherwise
[2] = target: MCL1-mCherry (human), Q07820; test: probe binding assay (PBA; single-molecule pull-down with TIRF counting); mCherry-labelled anti-apoptotic protein immobilised from HEK293T crude extract on a PEG surface (biotinylated anti-RFP antibody); crude HEK293T extract with the eGFP-labelled probe diluted to a range of eGFP concentrations, 10 min; fractional occupancy of surface baits at equilibrium fitted with n fixed to 1 or with the generalized Hill …; conditions: remark: other sources report otherwise
[3] = target: BCL2-mCherry (human), P10415; conditions: natural protein; chains chain; remark: other sources report otherwise
[4] = target: BCLxL-mCherry (human), Q07817; test: probe binding assay (PBA; single-molecule pull-down with TIRF counting); mCherry-labelled anti-apoptotic protein immobilised from HEK293T crude extract on a PEG surface (biotinylated anti-RFP antibody); crude HEK293T extract with the eGFP-labelled probe diluted to a range of eGFP concentrations, 10 min; fractional occupancy of surface baits at equilibrium fitted with n fixed to 1 or with the generalized Hill …; conditions: remark: other sources report otherwise
Sequence of BCLxL-mCherry (human), Q07817 (Q07817 whole entry): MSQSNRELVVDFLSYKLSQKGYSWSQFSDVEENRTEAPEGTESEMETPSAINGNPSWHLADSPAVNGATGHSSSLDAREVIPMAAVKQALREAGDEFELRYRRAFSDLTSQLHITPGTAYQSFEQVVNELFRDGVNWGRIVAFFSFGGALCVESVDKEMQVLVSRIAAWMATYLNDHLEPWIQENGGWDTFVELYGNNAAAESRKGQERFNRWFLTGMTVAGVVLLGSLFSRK

Sequence of MCL1-mCherry (human), Q07820 (Q07820 whole entry): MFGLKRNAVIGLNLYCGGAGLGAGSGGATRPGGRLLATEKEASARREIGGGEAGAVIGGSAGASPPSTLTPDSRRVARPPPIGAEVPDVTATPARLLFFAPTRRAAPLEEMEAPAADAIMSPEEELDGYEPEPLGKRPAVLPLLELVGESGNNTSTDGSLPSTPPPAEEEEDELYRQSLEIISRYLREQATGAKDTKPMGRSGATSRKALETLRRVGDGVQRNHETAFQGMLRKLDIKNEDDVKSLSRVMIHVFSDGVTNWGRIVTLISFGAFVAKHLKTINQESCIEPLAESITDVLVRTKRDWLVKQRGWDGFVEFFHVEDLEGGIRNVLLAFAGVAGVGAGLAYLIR
Sequence of BCL2-mCherry (human), P10415 (P10415 whole entry): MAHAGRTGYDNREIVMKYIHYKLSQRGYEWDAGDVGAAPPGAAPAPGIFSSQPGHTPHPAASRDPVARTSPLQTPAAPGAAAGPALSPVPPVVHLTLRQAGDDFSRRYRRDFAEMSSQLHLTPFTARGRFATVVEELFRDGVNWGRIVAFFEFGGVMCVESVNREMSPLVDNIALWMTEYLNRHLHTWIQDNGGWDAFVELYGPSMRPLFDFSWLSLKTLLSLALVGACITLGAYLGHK

Kd [1] [nM]	Kd [2] [nM]	Kd [3] [nM]	Kd [4] [nM]	Binder
4.1	4.1	–	–	NOXA-eGFP, Q13794 1-54 (natural protein) MPGKKARKNAQPSPARAPAELEVECATQLRRFGDKLNFRQKLLNLISKLFCSGT
–	–	5.5	2.5	BAD-eGFP, Q92934 1-168 (natural protein) MFQIPEFEPSEQEDSSSAERGLGPSPAGDGPSGSGKHHRQAPGLLWDASHQQEQPTSSSHHGGAGAVEIRSRHSSYPAGTEDDEGMGEEPSPFRGRSRSAPPNLWAAQRYGRELRRMSDEFVDSFKKGLPRPKSAGTATQMRQSSSWTRVFQSWWDRNLGRGSSAPSQ
